The data set concerns the target T1, CasEnd-7 (synthetic construct).
T1 chain: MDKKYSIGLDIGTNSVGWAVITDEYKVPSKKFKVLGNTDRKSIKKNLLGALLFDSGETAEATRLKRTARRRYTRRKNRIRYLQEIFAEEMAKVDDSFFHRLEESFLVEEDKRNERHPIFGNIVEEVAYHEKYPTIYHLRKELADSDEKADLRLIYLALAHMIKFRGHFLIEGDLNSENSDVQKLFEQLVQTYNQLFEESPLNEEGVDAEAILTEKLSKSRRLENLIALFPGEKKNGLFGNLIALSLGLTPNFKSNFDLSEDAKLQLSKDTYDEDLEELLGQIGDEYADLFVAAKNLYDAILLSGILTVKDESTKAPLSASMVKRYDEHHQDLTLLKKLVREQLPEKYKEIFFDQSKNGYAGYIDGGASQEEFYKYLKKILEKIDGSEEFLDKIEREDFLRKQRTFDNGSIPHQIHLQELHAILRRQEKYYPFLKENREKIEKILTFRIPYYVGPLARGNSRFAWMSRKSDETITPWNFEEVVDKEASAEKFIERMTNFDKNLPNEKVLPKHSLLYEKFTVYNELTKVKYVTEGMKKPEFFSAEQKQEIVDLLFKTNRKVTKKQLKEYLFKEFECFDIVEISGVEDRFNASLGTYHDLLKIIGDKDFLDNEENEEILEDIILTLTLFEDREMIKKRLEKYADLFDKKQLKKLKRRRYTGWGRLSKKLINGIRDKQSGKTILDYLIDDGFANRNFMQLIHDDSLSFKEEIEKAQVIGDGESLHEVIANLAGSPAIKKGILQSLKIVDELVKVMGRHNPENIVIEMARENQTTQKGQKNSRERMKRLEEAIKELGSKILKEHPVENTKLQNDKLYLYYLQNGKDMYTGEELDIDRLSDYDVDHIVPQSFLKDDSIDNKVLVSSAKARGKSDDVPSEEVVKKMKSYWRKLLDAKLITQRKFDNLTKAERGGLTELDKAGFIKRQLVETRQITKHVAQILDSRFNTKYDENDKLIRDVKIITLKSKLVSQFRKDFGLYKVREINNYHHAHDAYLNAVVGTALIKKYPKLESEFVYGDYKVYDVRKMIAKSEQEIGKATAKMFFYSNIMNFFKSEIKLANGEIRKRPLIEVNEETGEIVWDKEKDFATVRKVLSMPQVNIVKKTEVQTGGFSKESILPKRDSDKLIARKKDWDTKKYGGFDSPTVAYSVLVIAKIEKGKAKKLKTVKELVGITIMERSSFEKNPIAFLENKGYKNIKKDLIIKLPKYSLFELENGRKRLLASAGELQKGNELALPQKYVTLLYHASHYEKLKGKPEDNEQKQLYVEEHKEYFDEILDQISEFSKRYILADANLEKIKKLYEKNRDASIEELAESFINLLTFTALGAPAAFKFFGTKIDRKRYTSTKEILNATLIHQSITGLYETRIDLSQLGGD
Put plainly: cell_activity; +++; HEK293T; PAM not stated. The gist of the method: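 Editing activity was scored as the fraction of GFP+ cells on day 4 by flow cytometry. BFP-expressing HEK293T cells (250,000) received by nucleofection 200 ng plasmid for the RT-Cas fusion protein and 200 ng template RNA plasmid designed to convert BFP to GFP.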

B1: BFP-to-GFP template RNA ; BFP reporter protospacer (ssRNA ; dsDNA)
RNA: GCCGAAGCACUGCACGCCGUGUUUUAGAGCUAGAAAUAGCAAGUUAAAAUAAGGCUAGUCCGUUAUCAACUUGAAAAAGUGGCACCGAGUCGGUGCACCCUGACGUACGGCGUGCAGUGCUU
DNA 1: GCCGAAGCACTGCACGCCGT
DNA 2: ACGGCGTGCAGTGCTTCGGC
Regarding B1, the activity was ≥ 100 % of reference.

The record behind these values is patent publication US20250092426, “CAS ENDONUCLEASES AND RELATED METHODS” (Flagship Pioneering Innovations VII, LLC, published 2025).
